B1: Hu1210-1 (antibody, V domains shown)
VH: EVQLVESGGGLVKPGGSLRLSCAASGFTFSSYDMSWVRQAPGKGLEWVSTISDGGGYIYYSDSVKGRFTISRDNAKNSLYLQMNSLRAEDTAVYYCAREFGKRYALDYWGQGTTVTVSS
VL: DIQMTQSPSSLSASVGDRVTITCKASQDVTPAVAWYQQKPGKAPKLLIYSTSSRYTGVPSRFSGSGSGTDFTFTISSLQPEDIATYYCQQHYTTPLTFGQGTKLEIK
notes: Hu1210 VH.1 x Vk.1
B2: Hu1210-17 (antibody, V domains shown)
VH: B1 VH with K13Q, G44S, S49A, A88D, Y95I
VL: B1 VL
notes: Hu1210 VH.4b x Vk.1; human gamma 1 / kappa constant domains
B3: Hu1210-20 (antibody, V domains shown)
VH: B1 VH with K13Q, A88D
VL: B1 VL with A43S
notes: Hu1210 VH.4 x Vk.1a; human gamma 1 / kappa constant domains
B4: Hu1210-5 (antibody, V domains shown)
VH: B1 VH with V37I, S49A
VL: B1 VL
notes: Hu1210 VH.2a x Vk.1; human gamma 1 / kappa constant domains
B5: Hu1210-2 (antibody, V domains shown)
VH: B1 VH with S49A
VL: B1 VL
notes: Hu1210 VH.1a x Vk.1; human gamma 1 / kappa constant domains
B6: Hu1210-18 (antibody, V domains shown)
VH: B1 VH with V5L, K13Q, A75S, S78T
VL: B1 VL with A43S
notes: Hu1210 VH.3 x Vk.1a; human gamma 1 / kappa constant domains
B7: Hu1210-21 (antibody, V domains shown)
VH: B1 VH with K13Q, S49A, A88D
VL: B1 VL with A43S
notes: Hu1210 VH.4a x Vk.1a; human gamma 1 / kappa constant domains
B8: Hu1210-4 (antibody, V domains shown)
VH: B1 VH with V37I
VL: B1 VL
notes: Hu1210 VH.2 x Vk.1; human gamma 1 / kappa constant domains
B9: Hu1210-19 (antibody, V domains shown)
VH: B1 VH with V5L, K13Q, G44S, S49A, A75S, S78T, Y95I
VL: B1 VL with A43S
notes: Hu1210 VH.3a x Vk.1a; human gamma 1 / kappa constant domains
B10: 147H-6 (antibody, V domains shown)
VH: QVQLVQSGAEVKKPGASVKVSCKASGYTFTNYWLGWIKQAPGQGLEWIGDIYPGGDYINYNEKFKGKATLTADTSISTAYMELSRLRSDDTAVYYCARPNLPGDYWGQGTTVTVSS
VL: DIVMTQSPLSLPVTPGEPASISCRSSKSLLHSNGITYLYWYLQKPGQSPQLLIYQVSNLASGVPDRFSGSGSGTDFTLKISRVEAEDVGVYYCAQNLELPWTFGGGTKVEIK
notes: Common light chain; human gamma 1 / kappa constant domains
B11: 147H-7 (antibody, V domains shown)
VH: B10 VH with Y95F
VL: B10 VL
notes: as for B10
B12: 147H-14 (antibody, V domains shown)
VH: B10 VH with Q1E, Y95F
VL: B10 VL
notes: as for B10
B13: Hu1210-31 (antibody, V domains shown)
VH: B1 VH with K13Q, S49A, Y95I
VL: DIQMTQSPSSLSASVGDRVTITCKASQDVTPAVAWYQQKPGKAPKLLIYSTSSRYTGVPSRFSGSGSGTDFTLTISSLQPEDFATYYCQQHYTTPLTFGQGTKLEIKR
notes: Hu1210 VH.5b x Vk.2; human gamma 1 / kappa constant domains
B14: Hu1210-36 (antibody, V domains shown)
VH: B1 VH with K13Q, A40T, G42E, G44S, S49A, S78N, Y95I, T114L
VL: B13 VL
notes: Hu1210 VH.5d (printed 'VH.Sd') x Vk.2; human gamma 1 / kappa constant domains
B15: Hu1210-27 (antibody, V domains shown)
VH: B1 VH with K13Q, S49A, Y95I, T114L
VL: B13 VL
notes: Hu1210 VH.5a x Vk.2; human gamma 1 / kappa constant domains

Numbering of substitutions follows the chain as printed.

T4 sequence (Q9NZQ7 19-290): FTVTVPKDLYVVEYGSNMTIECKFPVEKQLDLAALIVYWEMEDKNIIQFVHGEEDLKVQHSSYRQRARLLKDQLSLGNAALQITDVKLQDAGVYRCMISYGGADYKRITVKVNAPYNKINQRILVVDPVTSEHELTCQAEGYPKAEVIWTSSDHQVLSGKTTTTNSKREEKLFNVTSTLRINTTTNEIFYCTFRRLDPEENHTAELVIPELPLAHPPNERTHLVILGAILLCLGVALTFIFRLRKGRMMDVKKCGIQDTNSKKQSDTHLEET
T3 sequence (Q9NZQ7 19-239 limits assumed): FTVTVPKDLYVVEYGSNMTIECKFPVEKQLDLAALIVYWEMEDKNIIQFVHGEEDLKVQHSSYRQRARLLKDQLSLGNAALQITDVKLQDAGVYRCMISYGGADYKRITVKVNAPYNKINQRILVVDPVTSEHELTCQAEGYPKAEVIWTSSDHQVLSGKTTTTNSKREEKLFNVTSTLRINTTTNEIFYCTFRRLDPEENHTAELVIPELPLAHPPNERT
T1 sequence (Q9NZQ7 19-239 limits assumed): as above

One experiment concerns the target T1, human PD-L1 (construct not stated) (human, UniProt Q9NZQ7 19-239, limits assumed).
T1 construct: also called B7-H1 (PD-L1); PD-L1 protein
The experiment can be described thus: BLI Octet Red 96, affinity ranking. An excerpt:
To explore the binding kinetics of the humanized antibody, this example performed the affinity ranking by using Octet Red 96.
In the case of B1, binding was characterised by a dissociation constant (Kd) of 4.25 nM, the koff was found to be 0.000302 s⁻¹ and the kon was 71000 M⁻¹ s⁻¹.
The molecule B2 came in with a Kd of 2.2 nM, a koff of 0.00018 s⁻¹ and a kon of 81700 M⁻¹ s⁻¹.
Consider B3, for which the affinity, expressed as Kd, was 4.51 nM; the koff was 0.0004 s⁻¹; the kon stood at 88700 M⁻¹ s⁻¹.
On the same counts, the results for B4 are 4.83 nM, 0.000383 s⁻¹ and 79300 M⁻¹ s⁻¹.
B5 showed a Kd of 3.23 nM, a koff of 0.000251 s⁻¹ and a kon of 77800 M⁻¹ s⁻¹.
On the same counts, the results for B6 are 4.5 nM, 0.000357 s⁻¹ and 79200 M⁻¹ s⁻¹.
In turn, B7 showed a Kd of 3.12 nM, a dissociation rate constant (koff) of 0.000293 s⁻¹ and a kon of 93900 M⁻¹ s⁻¹.
Molecule B8 gave a Kd of 7.68 nM, a koff of 0.000546 s⁻¹ and a kon of 71200 M⁻¹ s⁻¹.
The molecule B9 displayed a dissociation constant Kd of 2.5 nM, a koff of 0.000225 s⁻¹ and a kon of 90300 M⁻¹ s⁻¹.

A further experiment addresses T2, human LAG3 (construct not stated) (human, UniProt P18627 23-450, limits assumed).
T2 construct: also called human LAG3 protein; antigen
T2 sequence (looked up): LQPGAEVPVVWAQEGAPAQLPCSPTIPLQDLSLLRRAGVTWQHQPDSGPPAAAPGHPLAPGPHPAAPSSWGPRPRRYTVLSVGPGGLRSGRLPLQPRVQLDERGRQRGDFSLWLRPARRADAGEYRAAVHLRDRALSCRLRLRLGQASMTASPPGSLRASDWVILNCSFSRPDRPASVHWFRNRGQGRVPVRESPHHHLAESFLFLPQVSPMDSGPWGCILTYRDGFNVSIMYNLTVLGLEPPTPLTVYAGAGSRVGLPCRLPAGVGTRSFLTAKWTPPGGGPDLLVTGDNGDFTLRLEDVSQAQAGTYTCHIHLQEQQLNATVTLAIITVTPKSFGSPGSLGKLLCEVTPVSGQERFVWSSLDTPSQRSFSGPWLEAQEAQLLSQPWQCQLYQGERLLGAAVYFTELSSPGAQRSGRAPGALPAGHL
As to the kind of experiment: BLI Octet Red 96, affinity ranking.
On to B10, for which binding was put at a Kd of 15.3 nM, the koff was 0.00184 s⁻¹ and the association rate constant (kon) is 120000 M⁻¹ s⁻¹.
For the molecule B11, the Kd came out at 15.7 nM, the koff is 0.00239 s⁻¹ and the kon is 152000 M⁻¹ s⁻¹.
On the same counts, the results for B12 are 23.2 nM, 0.0025 s⁻¹ and 108000 M⁻¹ s⁻¹.

For the next experiment, the target named is T2, human LAG3 (construct not stated). As to the kind of experiment: BLI Octet Red 96, full kinetics, antigen 50-3.125 nM. As for the experimental part: The binding affinity was calculated by software in Octet® RED96 System.
Consider B10, for which the affinity, expressed as Kd, was 24.8 nM; the koff was 0.00259 s⁻¹; the kon worked out at 105000 M⁻¹ s⁻¹.
In turn, B11 gave a Kd of 26.5 nM, a koff of 0.00312 s⁻¹ and a kon of 118000 M⁻¹ s⁻¹.
Taken in the same sequence, the figures for B12 were 20.7 nM, 0.00204 s⁻¹ and 98700 M⁻¹ s⁻¹.

The next experiment concerns the target T3, human PD-L1-his taq protein (human, UniProt Q9NZQ7 19-239, limits assumed).
T3 construct: also called recombinant PD-L1 protein; recombinant human PD-L1; not shown: his tag
The experiment can be described thus: SPR Biacore T200, antibody captured, PD-L1-his injected. Here is the method:
The binding of the humanized antibodies to recombinant PD-L1 protein (human PD-L1-his taq) was tested by BIACORE™ using a capture method. The HL1210-3 mouse mAb were captured using anti-mouse Fc antibody coated on a CM5 chip. A series dilution of human PD-L1-his taq protein was injected over captured antibody for 3 mins at a flow rate of […]. The antigen was allowed to dissociate for 900 s. All the experiments were carried out on a Biacore T200.
Take B13: binding was put at a Kd of 0.786 nM, the koff is 0.000117 s⁻¹ and the kon was 149000 M⁻¹ s⁻¹.
Taken in the same sequence, the figures for B2 were 0.193 nM, 2.13e-05 s⁻¹ and 110000 M⁻¹ s⁻¹.
B14 had a Kd of 0.538 nM, a koff of 7.85e-05 s⁻¹ and a kon of 146000 M⁻¹ s⁻¹.

Another experiment has as its target T4, human PD-L1 expressed on mammalian cells (human, UniProt Q9NZQ7 19-290).
T4 construct: whole, on cells; also called PDL1-CHOK1 cells; PDL1-Raji cells
The experiment can be described thus: FACS receptor blocking on PDL1-CHOK1 cells, competitor Bio-PD1 (30 µg/ml). Here is the method:
To evaluate the blocking effect of humanized antibodies on human PD-L1 expressed on mammalian cells to bind to its receptor PD-1, the FACS-based receptor blocking assay was employed. Briefly, PDL1-CHOK1 cells were firstly incubated with 3-fold serious diluted HL1210-3 mouse mAb starting at 20 μg/ml at RT for 1 hour. After wash by FACS buffer (PBS with 2% FBS), the biotin-labeled huPD-1 were added to each well and incubated at RT for 1 hour. Then, the Streptavidin-PE was added to each well for 0.5 hour post twice wash with FACS buffer. The mean florescence intensity (MFI) of PE was evaluated by FACSAriaIII.
The molecule B15 returned a TOP of 104.
Consider B13, for which the TOP came to 92.9.
Regarding B2, the TOP was 80.9.
On the same count and under the same terms, then B14, with 91.8.
The same measure, in the same setting: then B9, with 87.5.

In another experiment the target is T5, human PD-L1-Fc protein (human, UniProt Q9NZQ7 19-239).
T5 construct: Coated on ELISA plates; also called huPD-L1; not shown: Fc part
T5 sequence (Q9NZQ7 19-239 limits assumed): as the sequence (Q9NZQ7 19-239 limits assumed) above
As to the kind of experiment: ELISA on coated human PD-L1-Fc; EC50 table has no unit, x axis Ab(nM). Here is the method:
(§1) To evaluate the antigen binding activity, the humanized antibodies were subjected to ELISA test. Briefly, microtiter plates were coated with human PD-L1-Fc protein at 0.1 μg/ml in PBS, 100 μl/well at 4° C. overnight, then blocked with 100 μl/well of 5% BSA. Five-fold dilutions of humanized antibodies starting from 10 μg/ml were added to each well and incubated for 1-2 hours at RT. The plates were washed with PBS/Tween and then incubate with […] antibody conjugated with Horse Radish Peroxidase (HRP) for 1 hour at RT. After washing, the plates were developed with TMB substrate and analyzed by spectrophotometer at OD 450-630 nm.
Molecule B1 showed an EC50 of 0.167 nM.
B4 showed a half-maximal effective concentration (EC50) of 0.193 nM.
Molecule B5 had an EC50 of 0.168 nM.
For the molecule B8, the midpoint of the response, the EC50, lay at 0.184 nM.

A further experiment concerns the target T5, human PD-L1-Fc protein. Described as above. This is another data set of the same source. As for the experimental part: as §1
The molecule B2 gave an EC50 of 0.208 nM.
Same read-out and setting: for B3 the value was 0.185 nM; for B6, 0.195 nM; for B7, 0.192 nM.
In turn, B9 gave an EC50 of 0.137 nM.

A further experiment deals with T4, human PD-L1 expressed on mammalian cells. As to the kind of experiment: flow cytometry (MFI) on PDL1-CHOK1 cells; EC50 table has no unit, x axis Antibodies(nM). As for the experimental part:
(§2) To evaluate the antigen binding property, the humanized antibodies were analyzed for its binding to mammalian expressed PD-L1 by FACS. Briefly, PDL1-CHOK1 cells were firstly incubated with 5-fold serious diluted humanized antibodies starting at 2 μg/ml at RT for 1 hour. After wash by FACS buffer (PBS with 2% FBS), the alexa 488-anti-human IgG antibody was added to each well and incubated at RT for 1 hour. The MFI of Alexa 488 was evaluated by FACSAriaIII.
With B1, the EC50 was 2.31 nM.
Molecule B4 displayed an EC50 of 1.43 nM.
Molecule B5 displayed an EC50 of 1.44 nM.
In the case of B8, the midpoint of the response, the EC50, lay at 2.12 nM.

For a further experiment the target is unchanged. The experiment is described as above. The source holds these as a separate data set. Here is the method: as §2
B2 displayed an EC50 of 1.23 nM.
For the molecule B3, a half-maximal response (EC50) required 1.73 nM.
The same measure, in the same setting: for B6 the value was 1.8 nM.
Turning to B7, the EC50 amounted to 1.29 nM.
The same measure, in the same setting: for B9 the value was 1.01 nM.

Values taken from patent publication US20220363763A1 (ABL BIO, published 2022).
